Results as given in patent US20150080549A1 (Chugai, published 2015).
Starred links: 1 amine or outer side, 2 acyl side, 3 side chain; linkers in the order of their positions; H or OH if unused. Positions of bridges follow the written chain, without caps; N, C: chain ends. Non-standard residues stand in square brackets, D forms with d. γEtAbu = 4-(ethylamino)butanoic acid, CCN(CCCC(=O)[*:2])[*:1]; NMeAla(4-thiazolyl) = CN[C@@H](Cc1cscn1)C(=O)O; NMePhe(3-Cl) = CN[C@@H](Cc1cccc(Cl)c1)C(=O)O; Met(O2) = CS(=O)(=O)CC[C@H](N)C(=O)O; NMeF = CN[C@@H](Cc1ccccc1)C(=O)O; FlPu(urea) = not defined here; Phg = N[C@H](C(=O)O)c1ccccc1; NMeS = CN[C@@H](CO)C(=O)O; NMeA = CN[C@@H](C)C(=O)O; βAla = NCCC(=O)O; Sar = CNCC(=O)O

T1: biotinylated Recombinant Human TNFR1/Fc Chimera (SinoBiological, Catalog Number 10872-H03H) (human, UniProt P19438 22-211, biotinylated with EZ-Link NHS-PEG4-Biotin (Thermo scientific 21329); sites not stated)
T1 construct: Bought Fc chimera; also called tumor necrosis factor receptor 1; Fc part of the bought chimera not given
T1 sequence (looked up): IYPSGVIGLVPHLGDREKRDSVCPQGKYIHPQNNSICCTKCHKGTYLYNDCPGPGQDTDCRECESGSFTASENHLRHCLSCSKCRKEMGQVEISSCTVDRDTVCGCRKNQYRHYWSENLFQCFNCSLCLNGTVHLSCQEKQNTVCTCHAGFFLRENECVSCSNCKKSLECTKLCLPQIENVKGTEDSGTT

T2: biotinylated Interleukin-6 receptor (IL-6R) (human, UniProt P08887 20-344, limits assumed, biotinylated (method of BMC biotechnology, 2008, 8, 41 and Protein Science, 1999, 8, 921-929); site not stated)
T2 construct: also called human IL-6 receptor; hIL-6R
T2 sequence (looked up): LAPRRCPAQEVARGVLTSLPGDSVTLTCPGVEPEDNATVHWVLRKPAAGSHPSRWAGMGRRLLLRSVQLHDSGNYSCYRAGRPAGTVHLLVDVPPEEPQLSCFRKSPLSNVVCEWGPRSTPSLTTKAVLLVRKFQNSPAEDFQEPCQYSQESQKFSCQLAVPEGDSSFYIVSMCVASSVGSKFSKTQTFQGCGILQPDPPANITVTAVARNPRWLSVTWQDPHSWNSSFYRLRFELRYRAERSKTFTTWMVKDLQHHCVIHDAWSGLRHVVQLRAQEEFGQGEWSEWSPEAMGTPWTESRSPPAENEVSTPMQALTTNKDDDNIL

B1: SEQ ID NO: PE-4 (TNFR1 binder) peptide (peptide)
peptide: A[dY]IW[Met(O2)]S[Met(O2)][NMePhe(3-Cl)]V[NMeF]DT[NMePhe(3-Cl)]SGSGSGS-{FlPu(urea)}
modifications: lactam N-11; reading uncertain
notes: Translated in ECL Translation Solution T, cyclized and desulfurized; not isolated; also called translation product of template DNA DME-4
B2: SEQ ID NO: PE-5 (TNFR1 binder) peptide (peptide)
peptide: AP[Sar]IIVS[NMeS][Phg][Phg]D[NMeAla(4-thiazolyl)]TSGSGSGS-{FlPu(urea)}
modifications: lactam N-11; reading uncertain
notes: Translated in ECL Translation Solution T, cyclized and desulfurized; not isolated; also called translation product of template DNA DME-5
B3: SEQ ID NO: PE-6 (TNFR1 binder) peptide (peptide)
peptide: AP[Sar]VITV[NMeS][Phg]SD[NMeA][NMePhe(3-Cl)]SGSGSGS-{FlPu(urea)}
modifications: lactam N-11; reading uncertain
notes: Translated in ECL Translation Solution T, cyclized and desulfurized; not isolated; also called translation product of template DNA DME-6
B4: Compound SP856 (peptide)
peptide: [γEtAbu]IVW[NMePhe(3-Cl)][Met(O2)]P[NMePhe(3-Cl)][dY][Met(O2)]D[NMeAla(4-thiazolyl)][NMeA]S-OH
modifications: lactam N-11
SMILES: CC[C@H](C)[C@@H]1NC(=O)CCCN(CC)C(=O)C[C@@H](C(=O)N(C)[C@@H](Cc2cscn2)C(=O)N(C)[C@@H](C)C(=O)N[C@@H](CO)C(=O)O)NC(=O)[C@H](CCS(C)(=O)=O)NC(=O)[C@@H](Cc2ccc(O)cc2)NC(=O)[C@H](Cc2cccc(Cl)c2)N(C)C(=O)[C@@H]2CCCN2C(=O)[C@H](CCS(C)(=O)=O)NC(=O)[C@H](Cc2cccc(Cl)c2)N(C)C(=O)[C@H](Cc2c[nH]c3ccccc23)NC(=O)[C@H](C(C)C)NC1=O
notes: Chemically synthesized, HPLC purified
B5: Compound SP855 (peptide)
peptide: AII[NMeAla(4-thiazolyl)]WP[NMePhe(3-Cl)][Met(O2)][dY][βAla]DP[NMePhe(3-Cl)]S-OH
modifications: lactam N-11
SMILES: CC[C@H](C)[C@@H]1NC(=O)[C@H](C)NC(=O)C[C@@H](C(=O)N2CCC[C@H]2C(=O)N(C)[C@@H](Cc2cccc(Cl)c2)C(=O)N[C@@H](CO)C(=O)O)NC(=O)CCNC(=O)[C@@H](Cc2ccc(O)cc2)NC(=O)[C@H](CCS(C)(=O)=O)NC(=O)[C@H](Cc2cccc(Cl)c2)N(C)C(=O)[C@@H]2CCCN2C(=O)[C@H](Cc2c[nH]c3ccccc23)NC(=O)[C@H](Cc2cscn2)N(C)C(=O)[C@H]([C@@H](C)CC)NC1=O
notes: as for B4
B6: Compound SP854 (peptide)
peptide: APVI[NMeF][Met(O2)]P[NMePhe(3-Cl)]V[Met(O2)]DP[Sar]S-OH
modifications: lactam N-11
SMILES: CC[C@H](C)[C@@H]1NC(=O)[C@H](C(C)C)NC(=O)[C@@H]2CCCN2C(=O)[C@H](C)NC(=O)C[C@@H](C(=O)N2CCC[C@H]2C(=O)N(C)CC(=O)N[C@@H](CO)C(=O)O)NC(=O)[C@H](CCS(C)(=O)=O)NC(=O)[C@H](C(C)C)NC(=O)[C@H](Cc2cccc(Cl)c2)N(C)C(=O)[C@@H]2CCCN2C(=O)[C@H](CCS(C)(=O)=O)NC(=O)[C@H](Cc2ccccc2)N(C)C1=O
notes: as for B4
B7: Compound SP859 (peptide)
peptide: APVI[NMeF][Met(O2)]P[NMePhe(3-Cl)]V[Met(O2)]DP[Sar]S-{NH(CH2)2NMe2}
modifications: lactam N-11
notes: Made from Compound SP854 by amidation of the C-terminal carboxylic acid

target: T1, biotinylated Recombinant Human TNFR1/Fc …; assay: ECL immunoassay (MSD): biotinylated target on streptavidin plate, translated FlPu(urea)-labelled cyclic peptide (Translation Solution T), anti-fluorescein and SULFO-TAG anti-mouse antibody; no-template control 293
Protocol: 0.5 μl of a 200 mM EDTA solution (pH 8.0, Nacalai, 14362-24) and 0.5 μl of a 100 mM TCEP solution (pH 6.6) were added to 5 μL of the translation mixture, and the mixture was incubated at 37° C. for 120 minutes to cause cyclization reaction. 11 μL of desulfurization buffer (15 mM cysteine, 36 mM TCEP) was added to the cyclization product, and the mixture was incubated at 42° C. for 1 minutes, after which 4 μL of 1 M VA-044 (Wako, CAS No. 27776-21-2) was added and the mixture was allowed to stand at 42° C. for 1 hour.
Immunoassay was carried out using the above peptide solution for ECL assay. 500 nM biotinylated target protein was added at 10 μL per well to MSD Streptavidin MULTI-ARRAY 384-well plate (Meso Scale Discovery, L25SB-1), and reaction was conducted at room temperature for 1 hour with shaking at 500 rpm to immobilize the target protein. 2% skim milk PBS was added at 50 μL per well, and blocking was carried out by allowing to stand at room temperature for 2 hours. The reaction solution was removed and the plate was washed with PBS containing 0.05% Tween 20 (PBST) three times, after which 10 μL of the peptide solution for ECL assay was added and the plate was shaken at room temperature for 50 minutes at 500 rpm. The reaction solution was removed and the plate was washed with PBST three times, after which 10 μL of IgG Fraction Monoclonal Mouse Anti-Fluorescein (Jackson ImmunoResearch, 200-002-037) diluted to 0.5 μg/mL with 2% skim milk PBS was added, and reaction was conducted at room temperature for 50 minutes with shaking at 500 rpm. […] The reaction solution was removed and the plate was washed with PBST three times, after which 35 μl, of 2× Read Buffer T (Meso Scale Discovery, R92TC-3) was added and measurement was carried out using SECTOR Imager 2400 (Meso Scale Discovery).

Binder	ECL signal
B1	32000
B2	3760
B3	3610

target: T2, biotinylated Interleukin-6 receptor …; assay: SPR, Biacore T200, 20 C; biotinylated IL-6R captured on sensor chip CAP, peptide as analyte; KD=koff/kon from curve fitting
Protocol: An SPR experiment for analyzing the interaction between synthetic peptides and IL-6R was conducted using Biacore T200 (GE healthcare) at 20° C. Synthetic peptides were added to the immobilized IL-6R, and the interaction was evaluated.
CAP reagent was immobilized on a Biacore sensor chip, Series S sensor chip CAP (GE healthcare), according to the instructions, and biotinylated IL-6R was further immobilized.
The obtained sensorgrams were analyzed using T200 evaluation software (GE healthcare) or Scrubber2 (Biologic software). First, solvent correction for DMSO and double reference (correction by subtracting sensorgrams of flow cells where IL-6R was not immobilized and sensorgrams in the case where the buffer was added) were carried out. Second, binding rate constants (kₒₙ) and dissociation rate constants (koff) were calculated from curve fitting to the corrected sensorgrams, and KDs were determined by the relational expression KD=koff/kₒₙ.

Binder	Kd
B4	13 µM
B5	5.3 µM
B6	1.8 µM
B7	0.55 µM
